Assay [1] addresses full-length human Notch3 expressed on the cell surface (human) (UniProt Q9UM47). As to the kind of experiment: flow cytometry, negative control antibody, MDA-MB-468/hNotch3 cells.
The target is the same in assay [2]. Description: flow cytometry, negative control antibody, MDA-MB-468 cells.
Assay [3] has the same target. As to the kind of experiment: flow cytometry, negative control antibody, HCC2429 cells.
The target is the same in assay [4]. As to the kind of experiment: flow cytometry, negative control antibody, U2OS/hNotch3 cells.
Assay [5] has the same target. Description: flow cytometry, negative control antibody, OVCAR3 cells.

Sequence of full-length human Notch3 expressed on the cell surface (human) (Q9UM47 40-2321): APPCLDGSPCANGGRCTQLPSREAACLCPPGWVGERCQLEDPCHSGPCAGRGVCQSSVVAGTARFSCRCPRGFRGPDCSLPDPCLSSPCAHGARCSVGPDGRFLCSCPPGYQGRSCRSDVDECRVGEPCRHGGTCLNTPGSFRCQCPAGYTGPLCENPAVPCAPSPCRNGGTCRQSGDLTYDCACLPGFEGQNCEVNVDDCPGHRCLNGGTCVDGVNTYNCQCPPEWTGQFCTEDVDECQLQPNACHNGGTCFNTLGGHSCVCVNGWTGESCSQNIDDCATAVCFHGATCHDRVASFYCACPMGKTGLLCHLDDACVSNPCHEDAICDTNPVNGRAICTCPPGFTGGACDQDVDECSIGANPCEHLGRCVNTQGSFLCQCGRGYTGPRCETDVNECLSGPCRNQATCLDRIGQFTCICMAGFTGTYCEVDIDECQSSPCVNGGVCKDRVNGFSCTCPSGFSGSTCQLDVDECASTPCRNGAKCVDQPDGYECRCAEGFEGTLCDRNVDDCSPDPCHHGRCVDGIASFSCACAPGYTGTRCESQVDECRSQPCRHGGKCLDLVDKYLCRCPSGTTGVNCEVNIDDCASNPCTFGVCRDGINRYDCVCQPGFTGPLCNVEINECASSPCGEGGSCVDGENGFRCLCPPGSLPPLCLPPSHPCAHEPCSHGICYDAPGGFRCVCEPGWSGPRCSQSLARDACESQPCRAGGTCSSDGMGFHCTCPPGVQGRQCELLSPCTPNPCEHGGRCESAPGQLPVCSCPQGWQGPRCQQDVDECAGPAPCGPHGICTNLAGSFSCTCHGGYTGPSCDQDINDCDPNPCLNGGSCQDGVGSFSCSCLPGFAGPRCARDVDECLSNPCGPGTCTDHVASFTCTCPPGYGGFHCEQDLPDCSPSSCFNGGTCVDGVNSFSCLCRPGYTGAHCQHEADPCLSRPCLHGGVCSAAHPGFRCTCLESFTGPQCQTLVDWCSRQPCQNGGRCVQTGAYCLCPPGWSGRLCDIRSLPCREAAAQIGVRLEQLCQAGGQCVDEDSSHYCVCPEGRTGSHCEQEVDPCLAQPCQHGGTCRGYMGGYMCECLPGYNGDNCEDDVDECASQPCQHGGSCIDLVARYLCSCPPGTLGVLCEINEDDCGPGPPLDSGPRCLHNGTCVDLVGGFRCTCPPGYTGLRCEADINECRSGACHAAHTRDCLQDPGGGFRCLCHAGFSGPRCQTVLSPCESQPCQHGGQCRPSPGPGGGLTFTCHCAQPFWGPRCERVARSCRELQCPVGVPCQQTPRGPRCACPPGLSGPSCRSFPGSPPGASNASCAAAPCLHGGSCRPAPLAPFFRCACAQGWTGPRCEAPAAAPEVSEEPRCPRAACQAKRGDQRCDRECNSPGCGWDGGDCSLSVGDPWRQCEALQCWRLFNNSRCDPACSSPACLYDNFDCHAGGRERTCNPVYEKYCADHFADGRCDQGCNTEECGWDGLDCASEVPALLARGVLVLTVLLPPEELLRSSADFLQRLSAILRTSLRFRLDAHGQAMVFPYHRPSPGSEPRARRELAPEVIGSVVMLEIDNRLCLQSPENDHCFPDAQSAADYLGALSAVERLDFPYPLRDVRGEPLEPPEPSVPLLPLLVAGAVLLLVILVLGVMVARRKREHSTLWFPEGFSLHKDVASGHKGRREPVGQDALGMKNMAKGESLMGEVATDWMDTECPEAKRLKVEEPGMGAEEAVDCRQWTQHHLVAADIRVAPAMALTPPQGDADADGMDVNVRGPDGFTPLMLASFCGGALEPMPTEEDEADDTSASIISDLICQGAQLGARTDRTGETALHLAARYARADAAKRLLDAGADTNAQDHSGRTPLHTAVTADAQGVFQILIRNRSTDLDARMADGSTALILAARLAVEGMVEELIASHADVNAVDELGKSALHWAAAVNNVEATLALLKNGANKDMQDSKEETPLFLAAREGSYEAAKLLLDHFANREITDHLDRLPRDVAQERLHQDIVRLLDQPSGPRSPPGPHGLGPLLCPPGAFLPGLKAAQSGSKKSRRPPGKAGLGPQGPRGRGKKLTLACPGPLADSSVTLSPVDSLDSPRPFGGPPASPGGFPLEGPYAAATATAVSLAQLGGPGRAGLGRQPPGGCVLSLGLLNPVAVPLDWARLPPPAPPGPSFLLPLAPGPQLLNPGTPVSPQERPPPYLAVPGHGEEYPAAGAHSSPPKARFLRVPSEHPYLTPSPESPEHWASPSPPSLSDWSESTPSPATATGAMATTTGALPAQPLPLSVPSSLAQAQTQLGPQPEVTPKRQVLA

In the case of huNeg8.8 negative control antibody, the MFI in assay [1] is 6 MFI; in assay [2], 6 MFI; in assay [3], 3 MFI; in assay [4], 6 MFI; in assay [5] it was 5 MFI.

Values taken from patent publication US20140127211A1.
